T1: Soluble CDCP1 extracellular domain (CDCP1-ECD) (SEQ ID NO:30) fused to Streptavidin Binding Protein (SBP) (human, UniProt Q9H5V8 30-663)
T1 construct: also called SBP-CDCP1-ECD
T1 sequence: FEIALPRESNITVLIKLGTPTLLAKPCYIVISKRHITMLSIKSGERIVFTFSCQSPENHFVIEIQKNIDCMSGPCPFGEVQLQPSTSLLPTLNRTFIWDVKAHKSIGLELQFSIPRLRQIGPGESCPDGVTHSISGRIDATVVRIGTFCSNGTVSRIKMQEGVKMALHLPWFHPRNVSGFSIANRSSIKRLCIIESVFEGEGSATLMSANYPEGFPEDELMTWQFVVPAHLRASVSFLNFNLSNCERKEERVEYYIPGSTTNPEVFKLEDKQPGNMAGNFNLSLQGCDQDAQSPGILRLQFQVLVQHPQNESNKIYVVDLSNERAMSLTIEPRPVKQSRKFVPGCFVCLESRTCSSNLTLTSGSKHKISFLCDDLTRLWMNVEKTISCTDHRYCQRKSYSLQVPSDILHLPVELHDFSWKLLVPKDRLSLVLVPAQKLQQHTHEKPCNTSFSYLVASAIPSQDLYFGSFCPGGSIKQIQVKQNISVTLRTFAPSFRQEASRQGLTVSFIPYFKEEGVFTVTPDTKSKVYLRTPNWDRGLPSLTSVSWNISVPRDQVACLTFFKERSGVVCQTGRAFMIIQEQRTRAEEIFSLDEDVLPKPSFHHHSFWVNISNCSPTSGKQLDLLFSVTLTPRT


Molecular target: T1, Soluble CDCP1 extracellular domain …
Experiment: ELISA on captured SBP-CDCP1-ECD, ratio relative to chimeric CUB4 (chHC4)
Method: Soluble CDCP1 extracellular domain (CDCP1-ECD) (SEQ ID NO:30) fused to Streptavidin Binding Protein (SBP) was captured on a sreptavidine plate. To define optimal binding of the antibody to SBP-CDCP1-ECD, 384-well polystyrene plates (NUNC, streptavidin-coated) delivered by MicroCoat, Bernried, Germany (ID-No. 1734776-001) have been coated with pure and stepwise diluted HEK293 supernatant (in BSA/IMDM buffer: 100 mg/ml BSA Fraction V, Roche 10735078001, dissolved in Iscove's Modified Dulbeccos Medium). Using a calibration curve of mouse CUB4 antibodies the optimal dilution factor of the HEK293 supernatant in relation to the streptavidin binding capacity of the microtiter plate was identified. For the standard coating, SBP-CDCP1-ECD containing HEK293 supernatant was diluted (between 1:15 and 1:40) and incubated overnight at 2-8° C. (25 μl per well). Intensive washing of the microtiter plate is necessary to remove remaining unbound SBP-CDCP1-ECD.
Humanized CUB4 antibodies and/or reference antibody (chimeric (chHC4) CUB4 antibody comprising human constant region and mouse VH and VL of SEQ ID NO:1 and 2) were tested either undiluted or using a 12-step-dilution. 12.5 μl per well of each sample was incubated for 90 min at room temperature. After intensive washing using PBS-T (0.1% Tween 20 in PBS) 25 μl of either goat anti-human IgG antibodies coupled with HRP (Jackson ImmunoResearch, Code No: 109-036-098, dilution 1:10000) for human antibodies were added and incubated for 1 hour. After intensive washing the binding of the antibodies was detected with ABTS tablets (Roche Diagnostics GmbH, Cat. No.: 1112422). Absorbance at 405 nm/492 nm was measured using a standard photometer.

| Binder | relative binding ratio | binding result |
| --- | --- | --- |
| hHC4-03 / hLC4-M (antibody, V domains shown) VH: EVQLLESGGGLVQPGGSLRLSCAASGFTFNSYGMSWVRQAPGKGLEWVSAISSGGSYTYYPDSVKGRFTISRDNSKNTLYLQMNSLRAEDTAVYYCAKHPDYDGVWFAYWGQGTLVTVSS VL: EIVLTQSPATLSLSPGERATMSCGASSSVFYLHWYQQKPGLAPRLWIYDTSKLASGIPDRFSGSGSGTDFTLTISRLEPEDFAVYYCQQWNSNPPTFGGGTKVEIK | 0.14 |  |
| hHC4-03 / hLC4-a (antibody, V domains shown) VH: EVQLLESGGGLVQPGGSLRLSCAASGFTFNSYGMSWVRQAPGKGLEWVSAISSGGSYTYYPDSVKGRFTISRDNSKNTLYLQMNSLRAEDTAVYYCAKHPDYDGVWFAYWGQGTLVTVSS VL: EIVLTQSPATLSLSPGERATLSCSVSSSVFYVHWYQQKPGQAPRLLIYDTSKLASGIPARFSGSGSGTDFTLTISSLEPEDFAVYYCQQWNSNPPTFGGGTKVEIK | 0.07 |  |
| hHC4-03 / hLC4-b (antibody, V domains shown) VH: EVQLLESGGGLVQPGGSLRLSCAASGFTFNSYGMSWVRQAPGKGLEWVSAISSGGSYTYYPDSVKGRFTISRDNSKNTLYLQMNSLRAEDTAVYYCAKHPDYDGVWFAYWGQGTLVTVSS VL: EIVLTQSPATLSLSPGERATLSCSVSSSVFYVHWYQQKPGQAPRLLIYDTSKLASGIPARFSGSGSGTDYTLTISSLEPEDFAVYYCQQWNSNPPTFGGGTKVEIK | 0.07 |  |
| hHC4-04 / hLC4-I (antibody, V domains shown) VH: EVQLLESGGGLVQPGGSLRLSCAASGFTFNSYGMSWVRQAPGKGLEWVSTISSGGSYTYYPDSVKGRFTISRDNSKNTLYLQMNSLRAEDTAVYYCARHPDYDGVWFAYWGQGTLVTVSS VL: EIVMTQSPATLSLSPGERATLSCRASSSVFYLSWYQQKPGQAPRLWIYDTSKLASGIPARFSGSGSGTDFTLTISSLQPEDFAVYYCQQWNSNPPTFGGGTKVEIK |  | no binding |
| hHC4-04 / hLC4-J (antibody, V domains shown) VH: EVQLLESGGGLVQPGGSLRLSCAASGFTFNSYGMSWVRQAPGKGLEWVSTISSGGSYTYYPDSVKGRFTISRDNSKNTLYLQMNSLRAEDTAVYYCARHPDYDGVWFAYWGQGTLVTVSS VL: EIVMTQSPATLSLSPGERATMSCRASSSVFYLHWYQQKPGQAPRLWIYDTSKLASGIPARFSGSGSGTDFTLTISSLQPEDFAVYYCQQWNSNPPTFGGGTKVEIK | 0.4 |  |
| hHC4-04 / hLC4-K (antibody, V domains shown) VH: EVQLLESGGGLVQPGGSLRLSCAASGFTFNSYGMSWVRQAPGKGLEWVSTISSGGSYTYYPDSVKGRFTISRDNSKNTLYLQMNSLRAEDTAVYYCARHPDYDGVWFAYWGQGTLVTVSS VL: EIVLTQSPATLSLSPGERATLSCRASSSVFYLHWYQQKPGQAPRLWIYDTSKLASGIPARFSGSGSGTDFTLTISSLEPEDFAVYYCQQWNSNPPTFGGGTKVEIK | 0.57 |  |
| hHC4-04 / hLC4-L (antibody, V domains shown) VH: EVQLLESGGGLVQPGGSLRLSCAASGFTFNSYGMSWVRQAPGKGLEWVSTISSGGSYTYYPDSVKGRFTISRDNSKNTLYLQMNSLRAEDTAVYYCARHPDYDGVWFAYWGQGTLVTVSS VL: EIVLTQSPATLSLSPGERATMSCRASSSVFYLHWYQQKPGQAPRLWIYDTSKLASGIPARFSGSGSGTDFTLTISSLEPEDFAVYYCQQWNSNPPTFGGGTKVEIK | 0.68 |  |
| hHC4-04 / hLC4-L2 (antibody, V domains shown) VH: EVQLLESGGGLVQPGGSLRLSCAASGFTFNSYGMSWVRQAPGKGLEWVSTISSGGSYTYYPDSVKGRFTISRDNSKNTLYLQMNSLRAEDTAVYYCARHPDYDGVWFAYWGQGTLVTVSS VL: EIVLTQSPATLSLSPGERATMSCSVSSSVFYLHWYQQKPGQAPRLWIYDTSKLASGIPARFSGSGSGTDFTLTISSLEPEDFAVYYCQQWNSNPPTFGGGTKVEIK | 0.67 |  |
| hHC4-04 / hLC4-M (antibody, V domains shown) VH: EVQLLESGGGLVQPGGSLRLSCAASGFTFNSYGMSWVRQAPGKGLEWVSTISSGGSYTYYPDSVKGRFTISRDNSKNTLYLQMNSLRAEDTAVYYCARHPDYDGVWFAYWGQGTLVTVSS VL: EIVLTQSPATLSLSPGERATMSCGASSSVFYLHWYQQKPGLAPRLWIYDTSKLASGIPDRFSGSGSGTDFTLTISRLEPEDFAVYYCQQWNSNPPTFGGGTKVEIK | 0.82 |  |
| hHC4-04 / hLC4-a (antibody, V domains shown) VH: EVQLLESGGGLVQPGGSLRLSCAASGFTFNSYGMSWVRQAPGKGLEWVSTISSGGSYTYYPDSVKGRFTISRDNSKNTLYLQMNSLRAEDTAVYYCARHPDYDGVWFAYWGQGTLVTVSS VL: EIVLTQSPATLSLSPGERATLSCSVSSSVFYVHWYQQKPGQAPRLLIYDTSKLASGIPARFSGSGSGTDFTLTISSLEPEDFAVYYCQQWNSNPPTFGGGTKVEIK | 0.39 |  |
| hHC4-04 / hLC4-b (antibody, V domains shown) VH: EVQLLESGGGLVQPGGSLRLSCAASGFTFNSYGMSWVRQAPGKGLEWVSTISSGGSYTYYPDSVKGRFTISRDNSKNTLYLQMNSLRAEDTAVYYCARHPDYDGVWFAYWGQGTLVTVSS VL: EIVLTQSPATLSLSPGERATLSCSVSSSVFYVHWYQQKPGQAPRLLIYDTSKLASGIPARFSGSGSGTDYTLTISSLEPEDFAVYYCQQWNSNPPTFGGGTKVEIK | 0.36 |  |
| hHC4-07 / hLC4-I (antibody, V domains shown) VH: EVQLLESGGGLVQPGGSLRLSCAASGFTFNSYAMSWVRQAPGKGLEWVSTISSGGSYTYYPDSVKGRFTISRDNSKNTLYLQMNSLRAEDTAVYYCAKHPDYDGVWFAYWGQGTLVTVSS VL: EIVMTQSPATLSLSPGERATLSCRASSSVFYLSWYQQKPGQAPRLWIYDTSKLASGIPARFSGSGSGTDFTLTISSLQPEDFAVYYCQQWNSNPPTFGGGTKVEIK |  | no binding |
| hHC4-07 / hLC4-J (antibody, V domains shown) VH: EVQLLESGGGLVQPGGSLRLSCAASGFTFNSYAMSWVRQAPGKGLEWVSTISSGGSYTYYPDSVKGRFTISRDNSKNTLYLQMNSLRAEDTAVYYCAKHPDYDGVWFAYWGQGTLVTVSS VL: EIVMTQSPATLSLSPGERATMSCRASSSVFYLHWYQQKPGQAPRLWIYDTSKLASGIPARFSGSGSGTDFTLTISSLQPEDFAVYYCQQWNSNPPTFGGGTKVEIK | 0.07 |  |
| hHC4-07 / hLC4-K (antibody, V domains shown) VH: EVQLLESGGGLVQPGGSLRLSCAASGFTFNSYAMSWVRQAPGKGLEWVSTISSGGSYTYYPDSVKGRFTISRDNSKNTLYLQMNSLRAEDTAVYYCAKHPDYDGVWFAYWGQGTLVTVSS VL: EIVLTQSPATLSLSPGERATLSCRASSSVFYLHWYQQKPGQAPRLWIYDTSKLASGIPARFSGSGSGTDFTLTISSLEPEDFAVYYCQQWNSNPPTFGGGTKVEIK | 0.1 |  |
| hHC4-07 / hLC4-b (antibody, V domains shown) VH: EVQLLESGGGLVQPGGSLRLSCAASGFTFNSYAMSWVRQAPGKGLEWVSTISSGGSYTYYPDSVKGRFTISRDNSKNTLYLQMNSLRAEDTAVYYCAKHPDYDGVWFAYWGQGTLVTVSS VL: EIVLTQSPATLSLSPGERATLSCSVSSSVFYVHWYQQKPGQAPRLLIYDTSKLASGIPARFSGSGSGTDYTLTISSLEPEDFAVYYCQQWNSNPPTFGGGTKVEIK | 0.07 |  |
| hHC4-H / hLC4-I (antibody, V domains shown) VH: EVQLVESGGGLVQPGGSLRLSCAASGFTFNSYGMSWVRQAPGKGLEWVATISSGGSYKYYVDSVKGRFTISRDNAKNSLYLQMNSLRAEDTAVYYCARHPDYDGVWFAYWGQGTLVTVSS VL: EIVMTQSPATLSLSPGERATLSCRASSSVFYLSWYQQKPGQAPRLWIYDTSKLASGIPARFSGSGSGTDFTLTISSLQPEDFAVYYCQQWNSNPPTFGGGTKVEIK |  | no binding |
| hHC4-H / hLC4-J (antibody, V domains shown, also called Humanized CUB4 Antibody No. 36) VH: EVQLVESGGGLVQPGGSLRLSCAASGFTFNSYGMSWVRQAPGKGLEWVATISSGGSYKYYVDSVKGRFTISRDNAKNSLYLQMNSLRAEDTAVYYCARHPDYDGVWFAYWGQGTLVTVSS VL: EIVMTQSPATLSLSPGERATMSCRASSSVFYLHWYQQKPGQAPRLWIYDTSKLASGIPARFSGSGSGTDFTLTISSLQPEDFAVYYCQQWNSNPPTFGGGTKVEIK | 0.52 |  |

From patent publication US20110052582A1 (Hoffmann-La Roche, published 2011)
